Data from patent US20070231333A1, “ANTI-5T4 ANTIBODIES AND USES THEREOF” (Wyeth, priority 2006, published 2007).

Tests used:
Format in all cases: binding
[1] = system: human/mouse 282-361 5T4 chimera (with or without N-link at position 344); test: Epitope mapping ELISA, human/mouse 5T4 chimeras; parameters: key: +: binding; −: no binding; +/−: partial binding; conditions: human/mouse 282-361 (with or without N-link at position 344)
Protocol: (§1) To identify the epitopes to which each of the A1, A2, A3, and H8 antibodies bind, ELISA assays were performed using (1) 5T4 ectodomain Fc constructs with deleted or mutated sequences, and (2) 5T4 chimera constructs transiently expressed in COS-1 cells. The ectodomain includes the amino-terminal region, two leucine-rich repeats, and the intervening hydrophilic region. Fusion proteins containing a 5T4 ectodomain and a Fc constant regions from human IgG1 were prepared using mouse 5T4 (amino acids 1-361), rat 5T4 (amino acids 1-361), cynomologous monkey 5T4 (amino acids 1-355), chimpanzee 5T4 (amino acids 1-355), and black-tailed marmoset (amino acids 1-355). The 5T4 chimera constructs are depicted in FIG. 5. The binding results are summarized in Table 5, which indicates specific binding, partial binding, or lack of binding, by each of the H8, A1, A2, and A3 antibodies.

[2] = biological target: T1, human/mouse 173-361 5T4 chimera (Homo sapiens, UniProt Q13641, A205S/A340S/D319A/E189Q/E336D/G276S/G317D/H238Y/H301Y/I287V/I347V/INS199AFEGMV/L204R/L281W/P285A/P346A/P350Q/Q210R/Q282H/Q316P/R193G/R207L/R213T/R288K/S242R/T307A/V176E/V200A/V229L/V252A/V333G/Y224F/Y325F); test: Epitope mapping ELISA, human/mouse 5T4 chimeras; parameters: key: +: binding; −: no binding; +/−: partial binding
T1 construct: made in house; host or cells: COS-1 cells (transient)
T1 sequence (Q13641 with tags, fused parts or gaps V176E/E189Q/R193G/INS199AFEGMV/V200A/L204R/A205S/R207L/Q210R/R213T/Y224F/V229L/H238Y/S242R/V252A/G276S/L281W/Q282H/P285A/I287V/R288K/H301Y/T307A/Q316P/G317D/D319A/Y325F/V333G/E336D/A340S/P346A/I347V/P350Q limits assumed): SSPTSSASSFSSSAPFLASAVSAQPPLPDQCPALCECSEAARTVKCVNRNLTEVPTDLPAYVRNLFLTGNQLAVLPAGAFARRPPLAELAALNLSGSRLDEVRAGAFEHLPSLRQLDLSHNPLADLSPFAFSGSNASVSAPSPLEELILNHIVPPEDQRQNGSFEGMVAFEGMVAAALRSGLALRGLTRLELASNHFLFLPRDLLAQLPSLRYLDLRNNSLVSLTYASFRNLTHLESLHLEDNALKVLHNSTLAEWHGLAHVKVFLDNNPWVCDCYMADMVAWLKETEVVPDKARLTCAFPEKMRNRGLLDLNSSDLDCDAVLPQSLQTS
Protocol: as §1

[3] = system: human/mouse 173-258 5T4 chimera; test: Epitope mapping ELISA, human/mouse 5T4 chimeras; parameters: key: +: binding; −: no binding; +/−: partial binding
Protocol: as §1

[4] = system: human/mouse 83-163 5T4 chimera; test: Epitope mapping ELISA, human/mouse 5T4 chimeras; parameters: key: +: binding; −: no binding; +/−: partial binding
Protocol: as §1

[5] = biological target: T2, human 5T4 antigen (Homo sapiens, UniProt Q13641); test: BIACORE competition assay: second antibody after saturation with first antibody
T2 sequence (Q13641 32-420): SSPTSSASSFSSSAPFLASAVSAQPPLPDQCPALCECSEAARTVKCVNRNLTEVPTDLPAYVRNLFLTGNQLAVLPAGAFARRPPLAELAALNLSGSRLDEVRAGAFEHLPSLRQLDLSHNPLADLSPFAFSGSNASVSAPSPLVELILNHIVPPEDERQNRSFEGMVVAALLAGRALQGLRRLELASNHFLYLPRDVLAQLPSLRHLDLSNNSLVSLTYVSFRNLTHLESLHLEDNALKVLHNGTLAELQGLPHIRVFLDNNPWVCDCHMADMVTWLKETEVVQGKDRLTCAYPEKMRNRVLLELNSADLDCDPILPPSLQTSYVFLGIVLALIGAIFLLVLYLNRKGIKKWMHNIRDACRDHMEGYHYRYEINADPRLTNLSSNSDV
Protocol: Epitope mapping of the H8, A1, A2, and A3 antibodies was also performed using BIACORE® using a CM5 chip with bound human 5T4 antigen. The chip was saturated with H8, A1, A2, or A3 antibody, and a first response was measured. The chip was then saturated with a second antibody from among the H8, A1, A2, and A3 antibodies, and a second response was measured. For multiple experiments, the chip was regenerated by dissociation of the bound antibodies in 10 mM glycine, pH 1.5, followed by a buffer wash. The percentages shown are the response units measured upon binding by a second antibody directly to the CM5 chip divided by the response units measured upon binding of the second antibody to a CM5 chip saturated with a first antibody.
The epitopes bound by the H8 and A3 antibodies are sterically close to each other such that the rate of association with antigen is decreased when binding of H8 is assayed in the presence of A3, and vice versa. Similar results were obtained using the chimeric and humanized H8, A1, A2, and A3 antibodies, which were prepared as described in Example 7 herein below.

[6] = system: chimpanzee 5T4 ectodomain Fc; test: Epitope mapping ELISA, 5T4 ectodomain Fc fusions; parameters: key: +: binding; −: no binding; +/−: partial binding
Protocol: as §1

[7] = system: black-tailed marmoset 5T4 ectodomain Fc; test: Epitope mapping ELISA, 5T4 ectodomain Fc fusions; parameters: key: +: binding; −: no binding; +/−: partial binding
black-tailed marmoset 5T4 ectodomain Fc, sequence (as listed by the source): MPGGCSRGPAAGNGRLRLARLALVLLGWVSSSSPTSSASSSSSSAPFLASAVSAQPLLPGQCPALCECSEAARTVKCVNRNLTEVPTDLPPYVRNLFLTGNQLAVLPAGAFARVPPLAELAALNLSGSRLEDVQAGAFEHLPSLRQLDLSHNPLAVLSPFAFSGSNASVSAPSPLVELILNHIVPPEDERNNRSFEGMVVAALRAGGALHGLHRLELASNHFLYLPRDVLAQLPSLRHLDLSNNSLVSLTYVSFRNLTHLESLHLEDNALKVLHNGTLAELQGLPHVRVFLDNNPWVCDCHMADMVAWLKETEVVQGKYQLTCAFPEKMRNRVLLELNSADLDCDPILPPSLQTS
Protocol: as §1

[8] = biological target: T3, mouse 5T4 ectodomain Fc (Mus musculus, UniProt Q9Z0L0); test: Epitope mapping ELISA, 5T4 ectodomain Fc fusions; parameters: key: +: binding; −: no binding; +/−: partial binding
T3 construct: mouse 5T4 (amino acids 1-361); made in house; host or cells: COS-1 cells (transient)
T3 sequence (Q9Z0L0 32-361): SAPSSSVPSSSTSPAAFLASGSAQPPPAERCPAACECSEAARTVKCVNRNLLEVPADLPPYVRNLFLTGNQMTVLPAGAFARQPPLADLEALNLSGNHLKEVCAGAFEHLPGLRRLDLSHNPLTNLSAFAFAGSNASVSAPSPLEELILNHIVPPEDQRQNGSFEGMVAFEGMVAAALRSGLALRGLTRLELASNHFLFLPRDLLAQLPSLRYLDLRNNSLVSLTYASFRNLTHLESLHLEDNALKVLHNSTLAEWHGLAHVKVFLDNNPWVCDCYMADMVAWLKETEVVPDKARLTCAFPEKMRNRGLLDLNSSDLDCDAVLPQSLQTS
Protocol: as §1

binding to 5T4 antigen construct [1]: −
binding to 5T4 antigen construct [2]: −
binding to 5T4 antigen construct [3]: +
binding to 5T4 antigen construct [4]: +
Percentage Response of Second Antibody Following Saturation With First Antibody ([5]; 1st antibody A1): 98%
Percentage Response of Second Antibody Following Saturation With First Antibody ([5]; 1st antibody A3): 94%
binding to 5T4 antigen construct [6]: +
binding to 5T4 antigen construct [7]: +
binding to 5T4 antigen construct [8]: −
B1: A2: murine anti-5T4 monoclonal antibody (IgG2b heavy chain); VH residues 19-135 of SEQ ID NO:6, VL residues 23-130 of SEQ ID NO:8 (antibody, listed as Mus musculus, V domains shown)
VH: MEWRIFLFILSGTAGVHSQVQLQQSRPELVKPGASVKMSCKASGYTFTDYVISWVKQRTGQGLEWIGEIYPGSNSIYYNEKFKGRATLTADKSSSTAYMQLSSLTSEDSAVYFCAMGGNYGFDYWGQGTTLTVSS
VL: MDFQVQIFSFLLISASVIMSRGQIVLTQSPAIMSASLGERVTLTCTASSSVNSNYLHWYQQKPGSSPKLWIYSTSNLASGVPARFSGSGSGTSYSLTISSMEAEDAATYYCHQYHRSPLTFGAGTKLELK
modifications: (1)..(18) leader sequence; (19)..(135) heavy chain variable region; (44)..(53) CDR1; (68)..(84) CDR2; (117)..(124) CDR3; (1)..(22) leader sequence; (23)..(130) light chain variable region; (46)..(56) CDR1; (73)..(79) CDR2; (112)..(120) CDR3
